The target in the data set is T1, BMC05 (uncultured bacterium (metagenome)).
T1 chain: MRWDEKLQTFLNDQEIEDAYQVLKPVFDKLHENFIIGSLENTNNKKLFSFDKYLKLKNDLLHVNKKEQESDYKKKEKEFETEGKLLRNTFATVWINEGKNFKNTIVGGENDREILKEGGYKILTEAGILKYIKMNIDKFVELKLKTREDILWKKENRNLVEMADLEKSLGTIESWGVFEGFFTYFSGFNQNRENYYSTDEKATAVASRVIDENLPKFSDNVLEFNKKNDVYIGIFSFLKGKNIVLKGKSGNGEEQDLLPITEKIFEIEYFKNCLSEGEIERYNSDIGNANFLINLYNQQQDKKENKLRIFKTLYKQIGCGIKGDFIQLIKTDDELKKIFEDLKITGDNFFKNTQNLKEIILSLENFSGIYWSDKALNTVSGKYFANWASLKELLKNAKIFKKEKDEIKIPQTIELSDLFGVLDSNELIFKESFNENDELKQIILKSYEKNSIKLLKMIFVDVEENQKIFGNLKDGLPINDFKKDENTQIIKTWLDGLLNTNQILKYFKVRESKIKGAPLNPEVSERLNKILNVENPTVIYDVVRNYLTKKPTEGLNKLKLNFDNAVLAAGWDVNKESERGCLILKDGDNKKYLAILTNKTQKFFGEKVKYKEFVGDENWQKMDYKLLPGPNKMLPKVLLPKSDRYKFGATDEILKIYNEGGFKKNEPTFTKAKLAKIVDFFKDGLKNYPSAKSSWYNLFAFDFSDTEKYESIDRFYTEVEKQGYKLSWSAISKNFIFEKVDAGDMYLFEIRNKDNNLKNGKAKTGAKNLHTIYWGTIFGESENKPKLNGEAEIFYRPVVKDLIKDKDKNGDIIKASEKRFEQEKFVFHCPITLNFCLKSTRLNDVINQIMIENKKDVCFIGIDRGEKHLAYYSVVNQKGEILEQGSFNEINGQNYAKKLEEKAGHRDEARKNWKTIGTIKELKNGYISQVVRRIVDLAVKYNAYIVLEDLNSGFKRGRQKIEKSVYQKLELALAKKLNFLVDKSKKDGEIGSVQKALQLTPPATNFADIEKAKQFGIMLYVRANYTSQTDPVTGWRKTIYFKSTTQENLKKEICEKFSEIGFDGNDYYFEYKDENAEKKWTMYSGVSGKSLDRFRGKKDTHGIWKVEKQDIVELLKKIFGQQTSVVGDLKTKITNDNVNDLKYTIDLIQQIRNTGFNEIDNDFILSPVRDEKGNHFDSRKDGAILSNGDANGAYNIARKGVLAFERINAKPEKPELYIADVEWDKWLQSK
Put plainly: cell_activity; PAM not stated; E. coli depletion, 30 C. The method, then: Overnight grown pre-cultures were diluted into fresh 60 ml LB-Kanamycin (25 μg/ml) (Example 4) or LB-Kanamycin (25μg/ml)/Nourseothricin (50 μg/ml) medium (Example 5) to obtain an optical density at 600 nm (OD600) of 0.06. The inoculated medium was incubated at 30° C. on a horizontal shaker at 250 rpm until the culture reached an optical density at OD600 of 0.2. For induced BMC (NN) nuclease expression, 600 μl 20% L-(+)-arabinose (w/v) was added to the culture at a final concentration of 0.2% (v/v). The cultivation was continued until the culture reached an optical density at OD600 of 0.5. Subsequently 50 ml culture was transferred into one 50 ml conical tube and harvested by centrifugation at 4° C. for 5 min and 4000×g. Pelleted cells were resuspended in 50 ml ultrapure water (ice-cold) and centrifuged at 4° C. for 5 min and 4000×g.
This washing procedure was repeated twice. Washed cells were resuspended in 25 ml 10% (w/w) glycerin and re-centrifuged at 4° C. for 5 min and 4000×g. The pelleted cells were resuspended in 5 ml 10% (w/w) glycerin. After the final centrifugation step at 4° C. for 5 min and 4000×g, the cells were resuspended in 125 μl 10% (w/w) glycerin. Aliquots of 25 μl competent cells were stored at −80° C. until use. For the transformation procedure, aliquots of competent cells were thawed on ice and 50-100 ng plasmid DNA (CRISPR/gRNA-Ec) was added. Prepared cells were electroporated at 1800 V, 25 μF and 200 Ω in 1 mm gap size electroporation cuvettes, using the Bio-Rad Gene Pulser Xcell Electroporation System. Subsequently, 975 μL of NEB® 10-beta/Stable Outgrowth Medium was added immediately after the pulse to the transformed cells. Regeneration was done at 30° C. on a horizontal shaker at 250 rpm. Finally, 25-100 μl of the cell suspension was plated onto selective M9-Glucose agar plates supplemented with Kanamycin (25 μg/ml)/Ampicillin (100 μg/ml) (Example 4) or Kanamycin (25 μg/ml)/Ampicillin (100 μg/ml)/Nourseothrin (50 μg/ml) (Example 5). Growth of transformed E. coli cells on selective agar plates was screened for 48 h at 30° C.
As described above, each of the BMC01, BMC02, BMC03, BMC04, BMC05, BMC07, BMC08, BMC09, BMC10, BMC11, BMC12, BMC13, BMC14, or BMC15 nucleases was co-transformed into E. coli with a gRNA targeting the E. coli malQ gene to visualize a) the activity and b) the DNA targeting efficiency of the BMC nucleases.

In patent US20250277199, “NOVEL CRISPR-CAS NUCLEASES FROM METAGENOMES” (Brain Biotech AG, published 2025) one finds activity data, which are given here for one molecule.

B1: malQ gRNA (BMC stem-loop + 24 nt spacer) ; malQ protospacer (ssRNA ; dsDNA)
RNA: GAUUUCUACUAUUGUAGAUGUGGCGGUACGUUGAUGCAUCGCG
DNA 1: GTGGCGGTACGTTGATGCATCGCG
DNA 2: CGCGATGCATCAACGTACCGCCAC
B1 returned an activity of more than 99.9 % colony reduction.
